Measured values taken from PMC2646144.

Experiments:
[1] = target: M3-protein heterologously expressed on the surface of S. gordonii GP1221 (SGO M3) (S. pyogenes | not stated); test: radioligand binding; about 14 ng 125I-CIV or 125I-CB3 added to 250 µl bacterial suspension (S. gordonii expressing M3), room temperature 45 min, pellet-associated radioactivity as percentage of input
[2] = target: Collagen type IV from human placenta, full length (human) (UniProt P02462); test: SPR; BIAcore 2000, CIV or CB3 immobilised on CM5 chip by amine coupling, M3-protein injected at 6.25-50 µg/ml, 10 mM HEPES, 100 mM NaCl, pH 7.4; apparent dissociation constants

Q: How did the percent of the 125I-labeled ligand bound [1] turn out when “Collagen type IV from human placenta, full length (from UniProt P02462 28-1669; P08572 26-1712) (complex)” was run?
A: > 80%

Q: Which percent of the 125I-labeled ligand bound [1] does the source give for “Cyanogen bromide fragment 3 (CB3) of collagen type IV (domain or fragment)” here?
A: > 80%

Q: “GST-M3-protein (recombinant streptococcal M-protein type 3) (natural protein)” was tested. Which Kd [2] did it give?
A: 5 nM
